Reference: US20260035459A1 (AVA LIFESCIENCE, published 2026)

target: T1, soluble recombinant IGLV3-21^R110-harboring B-cell receptor, monomeric human IgM (170.5 kDa) (human); experiment: BLI (Fortebio Octet), antibody captured by anti-human IgG Fc, soluble BCR (monomeric IgM) as analyte, 1:1 model
T1 construct: Made in 293-HEK cells by transient expression and used as the analyte in BLI; also called soluble IGLV3-21^R110 B-cell receptor; soluble form of the IGLV3-21^R110 BCR
Source text: In brief, to define the binding affinities of the antibodies to the IGLV3-21^R110-harboring B-cell receptor, a soluble recombinant version of the BCR (170.5 kDa; sequence according to SEQ ID NO: 52 for HC and 53 for LC) was produced in 293-HEK cell line as monomeric human IgM by transient expression using a protocol described in section 1.1 of this Example, and binding to immobilized anti-IGLV3-21^R110 antibodies was monitored by Bio-Layer Interferometry (BLI) on a Fortebio Octet instrument (Satorius). Kinetic assays were performed by first immobilizing the humanized anti IGLV3-21R110 antibodies onto biosensors through an indirect capturing reagent, anti-human lgG Fc antibody. Anti IGLV3-21^R110 antibodies were loaded at a concentration of 0.01875 μg/ml to generate an anti IGLV3-21^R110 antibody capture level of between 0.30 and 0.34 nm. A 9 nM BCR-fragment solution in running buffer (PBS, 0.02% Tween20, 0.1% BSA, 0.05% sodium acide) was prepared and serial diluted 1:3 to obtain 7 concentrations from 9 to 0.012 nM (9 nM, 3 nM, 1 nM, 0.333 nM, 0.111 nM, 0.037 nM, and 0.012 nM). The anti IGLV3-21 R110 antibody capture biosensors were then submerged in wells containing the different concentrations of the soluble BCR-fragment for 900 seconds (association stage) followed by a dissociation step of 1200 seconds in running buffer. Steps were performed at a constant shake speed of 1000 rpm. All reagents were used as described by the manufacturer. Sensorgrams were generated after double reference correction (buffer and blank sensors) to compensate for both the natural dissociation of the capture anti IGLV3-21^R110 antibody and also non-specific binding of the soluble BCR-fragment to the sensor surface. […] (KD) were calculated based on the ratio of association (ka) and dissociation rate (kd) constants, obtained by fitting sensorgrams with a first order 1:1 binding model using the Fortebio Data Analysis software (Satorius).

T1 sequence (heavy, as listed by the source limits assumed, chain 1 of 2): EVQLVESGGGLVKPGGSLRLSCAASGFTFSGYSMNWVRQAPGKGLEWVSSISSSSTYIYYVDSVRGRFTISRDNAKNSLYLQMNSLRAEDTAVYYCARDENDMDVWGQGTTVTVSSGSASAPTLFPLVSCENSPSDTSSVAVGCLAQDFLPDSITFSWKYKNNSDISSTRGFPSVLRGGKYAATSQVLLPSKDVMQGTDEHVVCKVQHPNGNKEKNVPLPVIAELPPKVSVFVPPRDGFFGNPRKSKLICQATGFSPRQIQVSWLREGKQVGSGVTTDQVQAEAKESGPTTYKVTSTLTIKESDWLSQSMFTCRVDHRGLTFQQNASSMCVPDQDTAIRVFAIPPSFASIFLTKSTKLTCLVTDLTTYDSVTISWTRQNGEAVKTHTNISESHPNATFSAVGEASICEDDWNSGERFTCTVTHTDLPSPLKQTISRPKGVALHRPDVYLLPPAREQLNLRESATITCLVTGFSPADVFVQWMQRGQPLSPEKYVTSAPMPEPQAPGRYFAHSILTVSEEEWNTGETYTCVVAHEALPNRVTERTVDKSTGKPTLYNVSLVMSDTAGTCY
T1 sequence (light, as listed by the source limits assumed, chain 2 of 2): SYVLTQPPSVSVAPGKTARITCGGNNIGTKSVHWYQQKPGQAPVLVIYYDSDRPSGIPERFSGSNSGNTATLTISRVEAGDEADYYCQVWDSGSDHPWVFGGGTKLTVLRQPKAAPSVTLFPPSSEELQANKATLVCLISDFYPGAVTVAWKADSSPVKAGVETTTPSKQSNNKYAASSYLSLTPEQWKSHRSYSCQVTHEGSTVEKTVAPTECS

Binder | Kd [pM]
humanized anti-IGLV3-21^R110 antibody HC6-LC6 (antibody, human IgG1, V domains shown, VH fused to a human IgG1 constant domain and VL to a human Ig kappa constant domain; Expressed in CHO cells) VH: QVQLQESGPGLVKPSETLSLTCTVSGFSLTSYGIHWIRQSPGRGLEWIGVIWRGGGTDSNAAFMSRVTISVDTSKSQVSLKLGSVTAADTAIYYCARSRYDEEESMNYWGQGTSVTVSS VL: EIVLTQSPSSLSASVGDSVTITCRASGNIHSYLAWYQQKPGKAPKLLIYNAKTLADGVPSRFSGSGSGTQYTLTISSLQPEDFATYYCQHFWNTPPTFGAGTKLELK | 211
humanized anti-IGLV3-21^R110 antibody HC6-LC8 (antibody, human IgG1, V domains shown, Expressed in CHO cells) VH: QVQLQESGPGLVKPSETLSLTCTVSGFSLTSYGIHWIRQSPGRGLEWIGVIWRGGGTDSNAAFMSRVTISVDTSKSQVSLKLGSVTAADTAIYYCARSRYDEEESMNYWGQGTSVTVSS VL: EIVLTQSPATLSLSPGERATLSCRASGNIHSYLAWYQQKPGQAPRLLIYNAKTLADGIPARFSGSGSGTDYTLTISSLEPEDFASYYCQHFWNTPPTFGAGTKLELK | 277
humanized anti-IGLV3-21^R110 antibody HC6-LC9 (antibody, human IgG1, V domains shown, Expressed in CHO cells) VH: QVQLQESGPGLVKPSETLSLTCTVSGFSLTSYGIHWIRQSPGRGLEWIGVIWRGGGTDSNAAFMSRVTISVDTSKSQVSLKLGSVTAADTAIYYCARSRYDEEESMNYWGQGTSVTVSS VL: EIVLTQSPGTLSLSPGERATLSCRASGNIHSYLAWYQQKPGQAPRLLIYNAKTLADGIPDRFSGSGSGTDYTLTISRLEPEDFAVYYCQHFWNTPPTFGAGTKLELK | 291
humanized anti-IGLV3-21^R110 antibody HC6-LC7 (antibody, human IgG1, V domains shown, Expressed in CHO cells) VH: QVQLQESGPGLVKPSETLSLTCTVSGFSLTSYGIHWIRQSPGRGLEWIGVIWRGGGTDSNAAFMSRVTISVDTSKSQVSLKLGSVTAADTAIYYCARSRYDEEESMNYWGQGTSVTVSS VL: QIQLTQSPSFLSASVGDSVTITCRASGNIHSYLAWYQQKPGKAPQLLIYNAKTLADGVPSRFSGSGSGTEYTLTISSLQPEDFATYYCQHFWNTPPTFGAGTKLELK | 347
humanized anti-IGLV3-21^R110 antibody HC7-LC6 (antibody, human IgG1, V domains shown, Expressed in CHO cells) VH: QVQLQESGPGLVKPSETLSLTCTVSGFSLTSYGIHWIRQSPGRGLEWIGVIWRGGGTDSNAAFMSRITISRDTSKTQVSLKLGSVTAADTAIYYCARSRYDEEESMNYWGQGTSVTVSS VL: EIVLTQSPSSLSASVGDSVTITCRASGNIHSYLAWYQQKPGKAPKLLIYNAKTLADGVPSRFSGSGSGTQYTLTISSLQPEDFATYYCQHFWNTPPTFGAGTKLELK | 175

More lines, now with the values ahead:

Kd [pM] | Binder
313 | humanized anti-IGLV3-21^R110 antibody HC7-LC9 (antibody, human IgG1, V domains shown, Expressed in CHO cells) VH: QVQLQESGPGLVKPSETLSLTCTVSGFSLTSYGIHWIRQSPGRGLEWIGVIWRGGGTDSNAAFMSRITISRDTSKTQVSLKLGSVTAADTAIYYCARSRYDEEESMNYWGQGTSVTVSS VL: EIVLTQSPGTLSLSPGERATLSCRASGNIHSYLAWYQQKPGQAPRLLIYNAKTLADGIPDRFSGSGSGTDYTLTISRLEPEDFAVYYCQHFWNTPPTFGAGTKLELK
249 | humanized anti-IGLV3-21^R110 antibody HC7-LC8 (antibody, human IgG1, V domains shown, Expressed in CHO cells) VH: QVQLQESGPGLVKPSETLSLTCTVSGFSLTSYGIHWIRQSPGRGLEWIGVIWRGGGTDSNAAFMSRITISRDTSKTQVSLKLGSVTAADTAIYYCARSRYDEEESMNYWGQGTSVTVSS VL: EIVLTQSPATLSLSPGERATLSCRASGNIHSYLAWYQQKPGQAPRLLIYNAKTLADGIPARFSGSGSGTDYTLTISSLEPEDFASYYCQHFWNTPPTFGAGTKLELK
269 | humanized anti-IGLV3-21^R110 antibody HC7-LC7 (antibody, human IgG1, V domains shown, Expressed in CHO cells) VH: QVQLQESGPGLVKPSETLSLTCTVSGFSLTSYGIHWIRQSPGRGLEWIGVIWRGGGTDSNAAFMSRITISRDTSKTQVSLKLGSVTAADTAIYYCARSRYDEEESMNYWGQGTSVTVSS VL: QIQLTQSPSFLSASVGDSVTITCRASGNIHSYLAWYQQKPGKAPQLLIYNAKTLADGVPSRFSGSGSGTEYTLTISSLQPEDFATYYCQHFWNTPPTFGAGTKLELK
